{"source": "the nanobody polyreactivity screen of Harvey et al. (2022)", "data": [{"test": "yeast display, Sf9 membrane polyspecificity reagent, FACS + sequencing; frameworks hold sequencing errors", "procedure,_shortened": "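Sorting gates, low and high (top ~1%), were placed on anti-HA fluorescence to track expression and on streptavidin fluorescence to track reagent binding. A clone's polyreactivity label is taken from the gate it came out of. The reagent was 10% biotinylated, detergent-solubilized Sf9 membrane, applied for 1 hour at 4 °C to galactose-induced yeast display cells.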", "values": [{"sequence": "QVQLVESGGGLVQAGGSLRLSCAASGRIFTSYAKGWYRQAPGKERELVAAISRSGGSTYYADSVKGRFTISRDNAKNTVYLQMHSLKPEDTALYYCAKARVVAGYDYWGQGTQVTVSS", "polyreactivity (PSR sort gate)": "high polyreactivity"}, {"sequence": "QVQLVESGGGLVQAGGSLRLSCAASGRIFTTYALGWYRQAPGKERELVATITSGGDTSYADSVKGRFTISRDNAKNTVYLQMNSLKPEDTAVYYCNVGASLDQCSIPFEGYYYWGQGTQVTVSS", "polyreactivity (PSR sort gate)": "low polyreactivity"}, {"sequence": "QVQLVESGGGLVQAGGSLRLSCAASGRIFTTYAMGWYRQAPGKERELVAAISRSGGSTYYADSVKGRFTISRDNAKNTVYLQMKSLKPEDTAVYYCAAVPTSNSFRSSFYYWGQGTQVTVSS", "polyreactivity (PSR sort gate)": "high polyreactivity"}, {"sequence": "QVQLVESGGGLVQAGGSLRLSCAASGRIFTTYAMGWYRQAPGKERELVAAISRSGGSTYYADSVKGRFTISRDNAKNTVYLQMNSLKPEDTAVYYCAAVPTSNSFRSSFYYWGQGTEVTVSS", "polyreactivity (PSR sort gate)": "high polyreactivity"}, {"sequence": "QVQLVESGGGLVQAGGSLRLSCAASGRIFTTYAMGWYSRGPGKERELVAAISQNGGSTYYADSVKGRFTISRDNAKNTVYLQMNSLKPEDTAVYYCNAGPAGYYDYDYRGQGTQVTVSS", "polyreactivity (PSR sort gate)": "low polyreactivity"}, {"sequence": "QVQLVESGGGLVQAGGSLRLSCAASGRIFTTYTMGWYRQAPGKERELVAAISKRGGSTYYADSVKGRFTISRDNAKNTVYLQMNSLKPEDTAVYYCAAVGGRFFAPYIWSVDSYDYWGQGTQVTVSS", "polyreactivity (PSR sort gate)": "high polyreactivity"}, {"sequence": "QVQLVESGGGLVQAGGSLRLSCAASGRIFTTYVMGWYRQAPGKEWELVAAISARGSTYYADSVKGRFTISRDNAKNTVYLQMNSLKPEDTEVYYCAAGPRLPVYYGYPRATYNDWGQGTQVTVSS", "polyreactivity (PSR sort gate)": "low polyreactivity"}, {"sequence": "QVQLVESGGGLVQAGGSLRLSCAASGRIFTVNAMGWYRQAPGKESELVASIRYRGSSTYYADSVKGRFTISRDNAKNTVYLQMNSLKPEDTAVYYCAAVVRQYRPPGLYDYWGQGTQVTVSS", "polyreactivity (PSR sort gate)": "high polyreactivity"}, {"sequence": "QVQLVESGGGLVQAGGSLRLSCAASGRIFTVYAMGWYRQAPGKERELVAAIDWSDGSTYYADSVKGRFTISRDNAKNTVYLQMNCLKPEVTAVYYCAAETYWVVEYDYWGQGTQVTVSS", "polyreactivity (PSR sort gate)": "high polyreactivity"}, {"sequence": "QVQLVESGGGLVQAGGSLRLSCAASGRIFTVYAMGWYRQAPGKERELVAAISGRGGRTYYADSVKGRFTISRDNAKNTVYLQMNSLKPEDTAGYYCNADTLTLSRPDGDIHTVWMDYWGQGTQVTVSS", "polyreactivity (PSR sort gate)": "low polyreactivity"}, {"sequence": "QVQLVESGGGLVQAGGSLRLSCAASGRIFTVYAMGWYRQAPGKERELVAAISRGGSTYADSVKGRFTISRDNAKNTVYLQMNSLKPEDTAVYYCAAVNFRKGEDYWGQGTQVTVSS", "polyreactivity (PSR sort gate)": "high polyreactivity"}, {"sequence": "QVQLVESGGGLVQAGGSLRLSCAASGRIFTWSTMGWYRQAAGTERELVAAINRGGSTTYADSVKGRFTISRDNAKNTVYLQMNSLKPEDTAVYYCAAYRSTSRVYSNWRGYDYWGQGTQVTVSS", "polyreactivity (PSR sort gate)": "high polyreactivity"}, {"sequence": "QVQLVESGGGLVQAGGSLRLSCAASGRIFTYNAMGWYRQAPGKERELVAAISYSGGRTDYADSVKGRFTISRDNAKNTVYLQMHSLKPEDTAVYYCAARPGPYWTVTFRSPKYYYWGQGTQVTVSS", "polyreactivity (PSR sort gate)": "high polyreactivity"}, {"sequence": "QVQLVESGGGLVQAGGSLRLSCAASGRIFTYNAMGWYRQAPGKERELVAAITYRGSSTYYADSVKGRFTISRDNAKNTVYLQMNSLKPEDTAVYYCAAPRLIRFVTYYSWGQGTQVTVSS", "polyreactivity (PSR sort gate)": "high polyreactivity"}, {"sequence": "QVQLVESGGGLVQAGGSLRLSCAASGRIFTYYAMGWYRQAPGKERELVAAINWGVVTTYYADSVKGRFTISRDNAKNTVYLQMNSLKPEDSAVYYCAADWFAANYYVNPVSALYYWGQGTQVTVSS", "polyreactivity (PSR sort gate)": "low polyreactivity"}, {"sequence": "QVQLVESGGGLVQAGGSLRLSCAASGRIFTYYGMGWSRQAPGKEMELVAAISSSGDSTFYADSVKGRFTISRDNAKNTVYLQMNSLKPEDTAVYYCAADYYYVWYDYWGQGTQVTVSS", "polyreactivity (PSR sort gate)": "low polyreactivity"}]}]}
